*1 amine or outer side, *2 acyl side, *3 side chain or, on linkers, in order; H or OH if unused. Where no end group is shown, it is not given here. Side-chain parts run from the residue outwards. [ ]: non-standard residue; d: D form. The star is where a group is joined. αMePhe(2-F) = C[C@](N)(Cc1ccccc1F)C(=O)O; γGlu = O=C(O)[C@H](CCC(=O)[*:2])N[*:1]; C14 diacid = O=C(O)CCCCCCCCCCCCC(=O)*; αMeY = C[C@](N)(Cc1ccc(O)cc1)C(=O)O; αMeL = CC(C)C[C@](C)(N)C(=O)O; Orn = NCCC[C@H](N)C(=O)O; AEEA = NCCOCCOCC(=O)O; Aib = CC(C)(N)C(=O)O
T1: human GIP receptor (human, UniProt P48546 22-466)
T1 construct: whole, on cells; also called hGIPR; human glucose-dependent insulinotropic polypeptide receptor
T1 sequence (looked up): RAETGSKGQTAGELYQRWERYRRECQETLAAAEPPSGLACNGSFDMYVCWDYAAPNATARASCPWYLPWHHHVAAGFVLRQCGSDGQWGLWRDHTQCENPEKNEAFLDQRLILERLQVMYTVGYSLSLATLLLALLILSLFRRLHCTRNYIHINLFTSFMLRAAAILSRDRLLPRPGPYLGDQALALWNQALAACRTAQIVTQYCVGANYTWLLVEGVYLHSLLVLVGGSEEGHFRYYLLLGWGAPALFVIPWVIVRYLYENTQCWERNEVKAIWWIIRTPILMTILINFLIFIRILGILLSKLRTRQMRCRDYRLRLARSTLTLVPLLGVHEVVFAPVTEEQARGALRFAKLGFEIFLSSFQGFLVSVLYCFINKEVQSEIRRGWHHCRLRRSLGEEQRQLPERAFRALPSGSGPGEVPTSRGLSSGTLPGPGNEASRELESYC

B1: Y-Aib-EGT-αMeF(2F)-TSD-4Pal-SI-αMeL-LD-Orn-K((2-[2-(2-Amino-ethoxy)-ethoxy]-acetyl)2-(10-(4-carboxyphenoxy)decanoyl))AQ-Aib-EFI-(D-Glu)-αMeY-LIEGGK((2-[2-(2-Ami … (peptide)
peptide: YXEGTXTSDXSIXLDXKAQXEFIXXLIEGGKSSGAPPPS
modifications: Aib2, αMeF(2F)6, 4Pal10, αMeL13, Orn16, K17(Z1), Aib20, D-Glu24, αMeY25, K31(Z1), C-term NH2; Z1=AEEA2-(10-(4-carboxyphenoxy)decanoyl)
B2: Y-Aib-EGT-αMeF(2F)-TSDV-Aib-I-αMeL-LD-Orn … (peptide)
peptide: Y[Aib]EGT[αMePhe(2-F)]TSDV[Aib]I[αMeL]LD[Orn]QAQ[Aib][Orn]FIK([AEEA-AEEA-γGlu-C14 diacid])[αMeY]LIK([AEEA-AEEA-γGlu-C14 diacid])GGPSSGAPPPS-NH2
modifications: N-terminus assumed
SMILES: CC[C@H](C)[C@H](NC(=O)[C@H](CC(C)C)NC(=O)[C@](C)(Cc1ccc(O)cc1)NC(=O)[C@H](CCCCNC(=O)COCCOCCNC(=O)COCCOCCNC(=O)CC[C@H](NC(=O)CCCCCCCCCCCCC(=O)O)C(=O)O)NC(=O)[C@@H](NC(=O)[C@H](Cc1ccccc1)NC(=O)[C@H](CCCN)NC(=O)C(C)(C)NC(=O)[C@H](CCC(N)=O)NC(=O)[C@H](C)NC(=O)[C@H](CCC(N)=O)NC(=O)[C@H](CCCN)NC(=O)[C@H](CC(=O)O)NC(=O)[C@H](CC(C)C)NC(=O)[C@](C)(CC(C)C)NC(=O)[C@@H](NC(=O)C(C)(C)NC(=O)[C@@H](NC(=O)[C@H](CC(=O)O)NC(=O)[C@H](CO)NC(=O)[C@@H](NC(=O)[C@](C)(Cc1ccccc1F)NC(=O)[C@@H](NC(=O)CNC(=O)[C@H](CCC(=O)O)NC(=O)C(C)(C)NC(=O)[C@@H](N)Cc1ccc(O)cc1)[C@@H](C)O)[C@@H](C)O)C(C)C)[C@@H](C)CC)[C@@H](C)CC)C(=O)N[C@@H](CCCCNC(=O)COCCOCCNC(=O)COCCOCCNC(=O)CC[C@H](NC(=O)CCCCCCCCCCCCC(=O)O)C(=O)O)C(=O)NCC(=O)NCC(=O)N1CCC[C@H]1C(=O)N[C@@H](CO)C(=O)N[C@@H](CO)C(=O)NCC(=O)N[C@@H](C)C(=O)N1CCC[C@H]1C(=O)N1CCC[C@H]1C(=O)N1CCC[C@H]1C(=O)N[C@@H](CO)C(N)=O
B3: Y-Aib-EGT-αMeF(2F)-TSDY-Aib-I-αMeL-LD-Orn-IAQ-Aib-Orn-FIK((2-[2-(2-Amino-ethoxy)-ethoxy]-acetyl)3-(γ-Glu)--(10-(4-carboxyphenoxy)decanoyl))-αMeY-LIK((2-[2-(2-Am … (peptide)
peptide: YXEGTXTSDYXIXLDXIAQXXFIKXLIKGGPSSGAPPPS
modifications: Aib2, αMeF(2F)6, Aib11, αMeL13, Orn16, Aib20, Orn21, K24(Z1), αMeY25, K28(Z1), C-term NH2; Z1=AEEA3-(γ-Glu)-(10-(4-carboxyphenoxy)decanoyl)
B4: Y-Aib-EGT-αMeF(2F)-TSDY-Aib-I-αMeL-LD-Orn-IAQ-Aib-Orn-FIK((2-[2-(2-Amino-ethoxy)-ethoxy]-acetyl)3-(γ-Glu)-CO-(CH2)12-CO2H)-αMeY-LIK((2-[2-(2-Amino-ethoxy)-ethox … (peptide)
peptide: YXEGTXTSDYXIXLDXIAQXXFIKXLIKGGPSSGAPPPS
modifications: Aib2, αMeF(2F)6, Aib11, αMeL13, Orn16, Aib20, Orn21, K24(Z1), αMeY25, K28(Z1), C-term NH2; Z1=AEEA3-(γ-Glu)-CO-(CH2)12-CO2H
B5: Y-Aib-EGT-αMeF(2F)-TSD-4Pal-Aib-I-αMeL-LD-Orn-QAQ-Aib-Orn-FIK((2-[2-(2-Amino-ethoxy)-ethoxy]-acetyl)-Ahx-(γ-Glu)-CO-(CH2)12-CO2)-αMeY-LIK((2-[2-(2-Amino-ethoxy) … (peptide)
peptide: YXEGTXTSDXXIXLDXQAQXXFIKXLIKGGPSSGAPPPS
modifications: Aib2, αMeF(2F)6, 4Pal10, Aib11, αMeL13, Orn16, Aib20, Orn21, K24(Z1), αMeY25, K28(Z1), C-term NH2; Z1=AEEA-Ahx-(γ-Glu)-CO-(CH2)12-CO2 (so in the source)
B6: Y-Aib-EGT-αMeF(2F)-TSD-4Pal-Aib-I-αMeL-LD-Orn-QAQ-Aib-Orn-FIK(((2-[2-(2-Amino-ethoxy)-ethoxy]-acetyl)-Trx-(γ-Glu)-(10-(4-carboxyphenoxy)decanoyl))-αMeY-LIK(((2- … (peptide)
peptide: YXEGTXTSDXXIXLDXQAQXXFIKXLIKGGPSSGAPPPS
modifications: Aib2, αMeF(2F)6, 4Pal10, Aib11, αMeL13, Orn16, Aib20, Orn21, K24(Z1), αMeY25, K28(Z1), C-term NH2; Z1=AEEA-Trx-(γ-Glu)-(10-(4-carboxyphenoxy)decanoyl)
B7: Y-Aib-EGT-αMeF(2F)-TSD-4Pal-Aib-I-αMeL-LD-Orn-QAQ-Aib-Orn-FIK(PEG6-(γ-Glu)-CO-(CH2)12-CO2H)-αMeY-LIK(PEG6-(γ-Glu)-CO-(CH2)12-CO2H)GGPSSGAPPPS-NH2 (peptide)
peptide: YXEGTXTSDXXIXLDXQAQXXFIKXLIKGGPSSGAPPPS
modifications: Aib2, αMeF(2F)6, 4Pal10, Aib11, αMeL13, Orn16, Aib20, Orn21, K24(Z1), αMeY25, K28(Z1), C-term NH2; Z1=PEG6-(γ-Glu)-CO-(CH2)12-CO2H
B8: Y-Aib-EGT-αMeF(2F)-TSD-4Pal-Aib-I-αMeL-LD-Orn-QAQ-Aib-Orn-FIK(PEG5-(γ-Glu)-CO-(CH2)12-CO2H)-αMeY-LIK(PEG5-(γ-Glu)-CO-(CH2)12-CO2H)GGPSSGAPPPS-NH2 (peptide)
peptide: YXEGTXTSDXXIXLDXQAQXXFIKXLIKGGPSSGAPPPS
modifications: Aib2, αMeF(2F)6, 4Pal10, Aib11, αMeL13, Orn16, Aib20, Orn21, K24(Z1), αMeY25, K28(Z1), C-term NH2; Z1=PEG5-(γ-Glu)-CO-(CH2)12-CO2H
B9: Y-Aib-EGT-αMeF(2F)-TSD-4Pal-Aib-I-αMeL-LD-Orn-QAQ-Aib-Orn-FIK(((2-[2-(2-Amino-ethoxy)-ethoxy]-acetyl)2--Trx-(γ-Glu)-(10-(4-carboxyphenoxy)decanoyl))-αMeY-LIK((( … (peptide)
peptide: YXEGTXTSDXXIXLDXQAQXXFIKXLIKGGPSSGAPPPS
modifications: Aib2, αMeF(2F)6, 4Pal10, Aib11, αMeL13, Orn16, Aib20, Orn21, K24(Z1), αMeY25, K28(Z1), C-term NH2; Z1=AEEA2-Trx-(γ-Glu)-(10-(4-carboxyphenoxy)decanoyl)
B10: Y-Aib-EGT-αMeF(2F)-TSD-4Pal-Aib-I-αMeL-LD-Orn-QAQ-Aib-Orn-FIK(((2-[2-(2-Amino-ethoxy)-ethoxy]-acetyl)-Trx-(γ-Glu)-CO-(CH2)12-CO2H)-αMeY-LIK(((2-[2-(2-Amino-etho … (peptide)
peptide: YXEGTXTSDXXIXLDXQAQXXFIKXLIKGGPSSGAPPPS
modifications: Aib2, αMeF(2F)6, 4Pal10, Aib11, αMeL13, Orn16, Aib20, Orn21, K24(Z1), αMeY25, K28(Z1), C-term NH2; Z1=AEEA-Trx-(γ-Glu)-CO-(CH2)12-CO2H
B11: Y-Aib-EGT-αMeF(2F)-TSD-4Pal-Aib-I-αMeL-LD-Orn-QAQ-Aib-Orn-FIK(PEG6-(γ-Glu)-(10-(4-carboxyphenoxy)decanoyl))-αMeY-LIK(PEG6-(γ-Glu)-(10-(4-carboxyphenoxy)decanoyl … (peptide)
peptide: YXEGTXTSDXXIXLDXQAQXXFIKXLIKGGPSSGAPPPS
modifications: Aib2, αMeF(2F)6, 4Pal10, Aib11, αMeL13, Orn16, Aib20, Orn21, K24(Z1), αMeY25, K28(Z1), C-term NH2; Z1=PEG6-(γ-Glu)-(10-(4-carboxyphenoxy)decanoyl)
B12: Y-Aib-EGT-αMeF(2F)-TSD-4Pal-Aib-I-αMeL-LD-Orn-QAQ-Aib-Orn-FIK(((2-[2-(2-Amino-ethoxy)-ethoxy]-acetyl)2--Trx-(γ-Glu)-CO-(CH2)12-CO2H)-αMeY-LIK(((2-[2-(2-Amino-et … (peptide)
peptide: YXEGTXTSDXXIXLDXQAQXXFIKXLIKGGPSSGAPPPS
modifications: Aib2, αMeF(2F)6, 4Pal10, Aib11, αMeL13, Orn16, Aib20, Orn21, K24(Z1), αMeY25, K28(Z1), C-term NH2; Z1=AEEA2-Trx-(γ-Glu)-CO-(CH2)12-CO2H
B13: Y-Aib-EGT-αMeF(2F)-TSD-4Pal-Aib-I-αMeL-LD-Orn-QAQ-Aib-Orn-FIK(Ahx-(2-[2-(2-Amino-ethoxy)-ethoxy]-acetyl)-(γ-Glu)-(10-(4-carboxyphenoxy)decanoyl))-αMeY-LIK(Ahx-( … (peptide)
peptide: YXEGTXTSDXXIXLDXQAQXXFIKXLIKGGPSSGAPPPS
modifications: Aib2, αMeF(2F)6, 4Pal10, Aib11, αMeL13, Orn16, Aib20, Orn21, K24(Z1), αMeY25, K28(Z1), C-term NH2; Z1=Ahx-AEEA-(γ-Glu)-(10-(4-carboxyphenoxy)decanoyl)

Key:
human glucagon receptor = target: T2, human glucagon receptor (human, UniProt P47871 26-477); test: SPA competition vs [125I]-Gcg, hGcgR membranes
T2 construct: whole, on cells; also called hGCGR; hGcgR
T2 sequence (P47871 26-477): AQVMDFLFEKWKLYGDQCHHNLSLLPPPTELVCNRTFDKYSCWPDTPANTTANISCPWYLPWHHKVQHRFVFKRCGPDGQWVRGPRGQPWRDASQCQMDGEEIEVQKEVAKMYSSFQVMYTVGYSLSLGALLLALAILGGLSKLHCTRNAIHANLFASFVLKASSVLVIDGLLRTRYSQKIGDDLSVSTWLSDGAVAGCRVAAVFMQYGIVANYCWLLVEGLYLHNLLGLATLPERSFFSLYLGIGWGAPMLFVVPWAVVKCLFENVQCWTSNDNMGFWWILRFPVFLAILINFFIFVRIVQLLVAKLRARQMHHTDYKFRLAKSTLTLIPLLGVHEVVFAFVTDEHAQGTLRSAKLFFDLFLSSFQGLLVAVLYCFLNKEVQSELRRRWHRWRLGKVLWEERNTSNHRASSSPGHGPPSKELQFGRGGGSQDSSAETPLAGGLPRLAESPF

human GLP-1 receptor = target: T3, human GLP-1 receptor (human, UniProt P43220 24-463); test: SPA competition vs [125I]-GLP-1, hGLP-1R membranes
T3 construct: whole, on cells; also called hGLP-1R; human glucagon-like peptide-1 receptor
How it was run: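 Competition binding in 25 mM HEPES pH 7.4, 2.5 mM CaCl₂, 1 mM MgCl₂, 0.1% bacitracin, 0.003% TWEEN-20, EDTA-free protease inhibitors. IC₅₀ from four-parameter nonlinear fit; Kᵢ given as geometric mean ± SEM, n = independent replicates on different days.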

human GIP receptor = target: T1, human GIP receptor; test: SPA competition vs [125I]-GIP, hGIPR membranes

Binder | Ki (human glucagon receptor) [pM] | Ki (human GLP-1 receptor) [pM] | Ki (human GIP receptor) [pM]
B1 | 424000 | 681 | 48.9
B2 | 116000 | 367 | 31.4
B3 | 20100 | 326 | 26.6
B4 | 49700 | 407 | 40.6
B5 | 243000 | 201 | 13.3
B6 | 162000 | 169 | 31.9
B7 | 342000 | 200 | 19.9
B8 | 208000 | 381 | 48.6
B9 | 452000 | 197 | 49.3
B10 | 258000 | 254 | 37.6
B11 | 269000 | 94.3 | 29.1
B12 | 945000 | 121 | 34.6
B13 | 60100 | 243 | 14.3
